In US20230140797A1 (published 2023):
Read-outs that look alike come from different tables or passages of the source. Values belong to the binder of their own block, whether it stands above or below them.

Columns and labels:
[1] = biological target: human FcγRIIIa type V extracellular domain with C-terminal His tag (human, UniProt P08637 17-208); assay: SPR
[2] = biological target: human FcγRIa extracellular domain with C-terminal His tag (human, UniProt P12314 16-292); assay: SPR
Target sequence in this assay (P12314 16-292): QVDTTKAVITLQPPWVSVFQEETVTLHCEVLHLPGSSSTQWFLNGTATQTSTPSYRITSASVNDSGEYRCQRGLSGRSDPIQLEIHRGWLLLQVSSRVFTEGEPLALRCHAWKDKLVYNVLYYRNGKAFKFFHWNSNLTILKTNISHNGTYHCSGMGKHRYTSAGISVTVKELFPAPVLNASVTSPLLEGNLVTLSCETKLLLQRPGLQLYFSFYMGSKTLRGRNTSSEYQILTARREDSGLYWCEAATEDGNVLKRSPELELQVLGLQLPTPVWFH

[3] = biological target: T1, human FcγRIIa type H extracellular domain with C-terminal His tag (human, UniProt P12318 34-217); assay: SPR
T1 sequence (looked up): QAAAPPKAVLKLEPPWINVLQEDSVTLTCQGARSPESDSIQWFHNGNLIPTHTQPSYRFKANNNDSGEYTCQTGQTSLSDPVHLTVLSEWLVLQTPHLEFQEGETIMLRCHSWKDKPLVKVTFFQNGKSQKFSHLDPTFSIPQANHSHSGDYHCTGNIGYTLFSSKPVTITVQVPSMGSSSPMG

[4] = biological target: T2, human FcγRIIb extracellular domain with C-terminal His tag (human, UniProt P31994 43-217); assay: SPR
T2 sequence (looked up): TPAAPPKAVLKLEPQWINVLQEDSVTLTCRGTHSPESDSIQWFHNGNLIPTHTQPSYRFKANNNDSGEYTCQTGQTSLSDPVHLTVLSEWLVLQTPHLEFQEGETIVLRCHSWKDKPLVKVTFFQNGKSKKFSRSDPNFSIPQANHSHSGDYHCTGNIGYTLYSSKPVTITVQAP

[5] = biological target: T2, human FcγRIIb extracellular domain with …; assay: SPR; remark: listed apart in the source
[6] = biological target: T2, human FcγRIIb extracellular domain with …; assay: SPR; remark: listed apart in the source
[7] = biological target: human FcγRIa extracellular domain with C-terminal His tag (human, UniProt P12314 16-292); assay: SPR; remark: listed apart in the source
Target sequence in this assay (P12314 16-292): as the sequence (P12314 16-292) above

[8] = biological target: T3, human FcγRIIa type R extracellular domain with C-terminal His tag (human, UniProt P12318 34-217); assay: SPR
T3 sequence (looked up): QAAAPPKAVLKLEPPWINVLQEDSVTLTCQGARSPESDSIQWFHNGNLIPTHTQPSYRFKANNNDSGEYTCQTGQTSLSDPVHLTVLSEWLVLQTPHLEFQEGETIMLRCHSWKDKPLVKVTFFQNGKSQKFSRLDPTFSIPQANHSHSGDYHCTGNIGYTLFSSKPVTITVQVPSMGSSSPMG

[9] = biological target: T4, human FcγRIIb extracellular domain with C-terminal His tag (human, UniProt P31994 43-217); assay: ratio of SPR KD values
T4 sequence (looked up): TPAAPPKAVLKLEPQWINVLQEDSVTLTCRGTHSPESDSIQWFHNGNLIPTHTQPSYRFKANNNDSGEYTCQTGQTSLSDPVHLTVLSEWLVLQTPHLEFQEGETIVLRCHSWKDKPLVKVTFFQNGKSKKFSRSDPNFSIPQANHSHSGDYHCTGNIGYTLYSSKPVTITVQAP

human FcγRIIIa type V extracellular domain with C-terminal His tag, sequence (P08637 17-208 F176V): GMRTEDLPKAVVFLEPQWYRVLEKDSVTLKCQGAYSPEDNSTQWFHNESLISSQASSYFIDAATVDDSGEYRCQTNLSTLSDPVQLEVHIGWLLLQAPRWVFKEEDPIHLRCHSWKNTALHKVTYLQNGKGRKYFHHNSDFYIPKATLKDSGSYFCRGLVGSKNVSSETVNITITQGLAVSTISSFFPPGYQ

B1: IL6R-BP176/IL6R-L (antibody, human IgG1, kappa)
heavy: QVQLQESGPGLVKPSETLSLTCAVSGHSISHDHAWSWVRQPPGEGLEWIGFISYSGITNYNPSLQGRVTISRDNSKNTLYLQMNSLRAEDTAVYYCARSLARTTAMDYWGEGTLVTVSSASTKGPSVFPLAPSSKSTSGGTAALGCLVKDYFPEPVTVSWNSGALTSGVHTFPAVLQSSGLYSLSSVVTVPSSSLGTQTYICNVNHKPSNTKVDKKVEPKSCDKTHTCPPCPAPDLLGGDSVFLFPPKPKDTLMISRTPEVTCVVVDVSHEDPEVKFNWYVDGVEVHNAKTKPREEQYNSTYRVVSVLTVLHQDWLNGKEYKCKVSNDALPKPIEKTISKAKGQPREPQVYTLPPSRDELTKNQVSLTCLVKGFYPSDIAVEWESNGQPENNYKTTPPVLDSDGSFFLYSKLTVDKSRWQQGNVFSCSVMHEALHNHYTQESLSLSP
light: not shown
- Kd [1]: 54 nM

B3: IL6R-BP181/IL6R-L (antibody, human IgG1, kappa)
heavy: QVQLQESGPGLVKPSETLSLTCAVSGHSISHDHAWSWVRQPPGEGLEWIGFISYSGITNYNPSLQGRVTISRDNSKNTLYLQMNSLRAEDTAVYYCARSLARTTAMDYWGEGTLVTVSSASTKGPSVFPLAPSSKSTSGGTAALGCLVKDYFPEPVTVSWNSGALTSGVHTFPAVLQSSGLYSLSSVVTVPSSSLGTQTYICNVNHKPSNTKVDKKVEPKSCDKTHTCPPCPAPDLLGGDSVFLFPPKPKDTLMISRTPEVTCVVVDVSHEDGEVKFNWYVDGVEVHNAKTKPREEQYNSTYRVVSVLTVLHQDWLNGKEYKCKVSNAALPKPIEKTISKAKGQPREPQVYTLPPSRDELTKNQVSLTCLVKGFYPSDIAVEWESNGQPENNYKTTPPVLDSDGSFFLYSKLTVDKSRWQQGNVFSCSVMHEALHNHYTQESLSLSP
light: not shown
- Kd [3]: 28 µM

B4: BP505 (antibody, human IgG1, kappa)
heavy: QVQLQESGPGLVKPSETLSLTCAVSGHSISHDHAWSWVRQPPGEGLEWIGFISYSGITNYNPSLQGRVTISRDNSKNTLYLQMNSLRAEDTAVYYCARSLARTTAMDYWGEGTLVTVSSASTKGPSVFPLAPSSKSTSGGTAALGCLVKDYFPEPVTVSWNSGALTSGVHTFPAVLQSSGLYSLSSVVTVPSSSLGTQTYICNVNHKPSNTKVDKKVEPKSCDKTHTCPPCPAPDLLGDDSVFLFPPKPKDTLMISRTPEVTCVVIDVAEEDGDVKFNWYVDGVEVHNAKTKPREEQYNSTYRVVSVLTVLHQDWLNGKEYKCKVSNKALPAPIEKTISKAKGQPREPQVYTLPPSRDELTKNQVSLTCLVKGFYPSDIAVEWESNGQPENNYKTTPPVLDSDGSFFLYSKLTVDKSRWQQGNVFSCSVMHEALHNHYTQESLSLSP
light: not shown
- Kd [4]: 2100 nM
- KD (IIaR)/KD (IIb) [5]: 20
- KD (IIaH)/KD (IIb) [6]: 514

B5: IL6R-BP179/IL6R-L (antibody, human IgG1, kappa)
heavy: QVQLQESGPGLVKPSETLSLTCAVSGHSISHDHAWSWVRQPPGEGLEWIGFISYSGITNYNPSLQGRVTISRDNSKNTLYLQMNSLRAEDTAVYYCARSLARTTAMDYWGEGTLVTVSSASTKGPSVFPLAPSSKSTSGGTAALGCLVKDYFPEPVTVSWNSGALTSGVHTFPAVLQSSGLYSLSSVVTVPSSSLGTQTYICNVNHKPSNTKVDKKVEPKSCDKTHTCPPCPAPELLGDDSVFLFPPKPKDTLMISRTPEVTCVVVDVSHEDGEVKFNWYVDGVEVHNAKTKPREEQYNSTYRVVSVLTVLHQDWLNGKEYKCKVSNAALPKPIEKTISKAKGQPREPQVYTLPPSRDELTKNQVSLTCLVKGFYPSDIAVEWESNGQPENNYKTTPPVLDSDGSFFLYSKLTVDKSRWQQGNVFSCSVMHEALHNHYTQESLSLSP
light: not shown
- Kd [3]: 18 µM

B6: IL6R-BP192/IL6R-L (antibody, human IgG1, kappa)
heavy: QVQLQESGPGLVKPSETLSLTCAVSGHSISHDHAWSWVRQPPGEGLEWIGFISYSGITNYNPSLQGRVTISRDNSKNTLYLQMNSLRAEDTAVYYCARSLARTTAMDYWGEGTLVTVSSASTKGPSVFPLAPSSKSTSGGTAALGCLVKDYFPEPVTVSWNSGALTSGVHTFPAVLQSSGLYSLSSVVTVPSSSLGTQTYICNVNHKPSNTKVDKKVEPKSCDKTHTCPPCPAPDLLGGDSVFLFPPKPKDTLMISRTPEVTCVVVDVSDEDGEVKFNWYVDGVEVHNAKTKPREEQDNSTYRVVSVLTVLHQDWLNGKEYKCKVSNKALPKPIEKTISKAKGQPREPQVYTLPPSRDELTKNQVSLTCLVKGFYPSDIAVEWESNGQPENNYKTTPPVLDSDGSFFLYSKLTVDKSRWQQGNVFSCSVMHEALHNHYTQESLSLSP
light: not shown
- Kd [7]: 6.5 nM
- Kd [8]: 2500 nM

B7: BP564 (antibody, human IgG1, kappa)
heavy: QVQLQESGPGLVKPSETLSLTCAVSGHSISHDHAWSWVRQPPGEGLEWIGFISYSGITNYNPSLQGRVTISRDNSKNTLYLQMNSLRAEDTAVYYCARSLARTTAMDYWGEGTLVTVSSASTKGPSVFPLAPSSKSTSGGTAALGCLVKDYFPEPVTVSWNSGALTSGVHTFPAVLQSSGLYSLSSVVTVPSSSLGTQTYICNVNHKPSNTKVDKKVEPKSCDKTHTCPPCPAPELLGDDSVFLFPPKPKDTLMISRTPEVTCVVVDVSEEDGDVKFNWYVDGVEVHNAKTKPREEQDNSTYRVVSVLTVLHQDWLNGKEYKCKVSNKALPRPIEKTISKAKGQPREPQVYTLPPSRDELTKNQVSLTCLVKGFYPSDIAVEWESNGQPENNYKTTPPVLDSDGSFFLYSKLTVDKSRWQQGNVFSCSVMHEALHNHYTQESLSLSP
light: not shown
- Kd [4]: 2.2 nM
- KD (IIaR)/KD (IIb) [5]: 26.2
- KD (IIaH)/KD (IIb) [6]: 454

More lines, now with the values ahead:

- Kd [2]: 1400 nM
B2: IL6R-BP266/IL6R-L (antibody, human IgG1, kappa)
heavy: QVQLQESGPGLVKPSETLSLTCAVSGHSISHDHAWSWVRQPPGEGLEWIGFISYSGITNYNPSLQGRVTISRDNSKNTLYLQMNSLRAEDTAVYYCARSLARTTAMDYWGEGTLVTVSSASTKGPSVFPLAPSSKSTSGGTAALGCLVKDYFPEPVTVSWNSGALTSGVHTFPAVLQSSGLYSLSSVVTVPSSSLGTQTYICNVNHKPSNTKVDKKVEPKSCDKTHTCPPCPAPDLLGDDSVFLFPPKPKDTLMISRTPEVTCVVVDVSEEDGEVKFNWYVDGVEVHNAKTKPREEQYNSTYRVVSVLTVLHQDWLNGKEYKCKVSNKALPRPIEKTISKAKGQPREPQVYTLPPSRDELTKNQVSLTCLVKGFYPSDIAVEWESNGQPENNYKTTPPVLDSDGSFFLYSKLTVDKSRWQQGNVFSCSVMHEALHNHYTQESLSLSP
light: not shown

- Kd [2]: 1400 nM
B8: IL6R-BP269/IL6R-L (antibody, human IgG1, kappa)
heavy: QVQLQESGPGLVKPSETLSLTCAVSGHSISHDHAWSWVRQPPGEGLEWIGFISYSGITNYNPSLQGRVTISRDNSKNTLYLQMNSLRAEDTAVYYCARSLARTTAMDYWGEGTLVTVSSASTKGPSVFPLAPSSKSTSGGTAALGCLVKDYFPEPVTVSWNSGALTSGVHTFPAVLQSSGLYSLSSVVTVPSSSLGTQTYICNVNHKPSNTKVDKKVEPKSCDKTHTCPPCPAPELLGDDSVFLFPPKPKDTLMISRTPEVTCVVVDVSEEDGEVKFNWYVDGVEVHNAKTKPREEQDNSTYRVVSVLTVLHQDWLNGKEYKCKVSNKALPAPIEKTISKAKGQPREPQVYTLPPSRDELTKNQVSLTCLVKGFYPSDIAVEWESNGQPENNYKTTPPVLDSDGSFFLYSKLTVDKSRWQQGNVFSCSVMHEALHNHYTQESLSLSP
light: not shown

- KD (IIb) of the parent polypeptide/KD (IIb) of the altered polypeptide [9]: 15.7 fold
B9: IL6R-BP198/IL6R-L (antibody, human IgG1, kappa)
heavy: QVQLQESGPGLVKPSETLSLTCAVSGHSISHDHAWSWVRQPPGEGLEWIGFISYSGITNYNPSLQGRVTISRDNSKNTLYLQMNSLRAEDTAVYYCARSLARTTAMDYWGEGTLVTVSSASTKGPSVFPLAPSSKSTSGGTAALGCLVKDYFPEPVTVSWNSGALTSGVHTFPAVLQSSGLYSLSSVVTVPSSSLGTQTYICNVNHKPSNTKVDKKVEPKSCDKTHTCPPCPAPDYLGGDSVFLFPPKPKDTLMISRTPEVTCVVVDVSDEDGEVKFNWYVDGVEVHNAKTKPREEQYNSTYRVVSVLTVLHQDWLNGKEYKCKVSNAALPKPIEKTISKAKGQPREPQVYTLPPSRDELTKNQVSLTCLVKGFYPSDIAVEWESNGQPENNYKTTPPVLDSDGSFFLYSKLTVDKSRWQQGNVFSCSVMHEALHNHYTQESLSLSP
light: not shown
